Laboratory results: PMC7343719, “Immobilization of the Highly Active UDP-Glucose Pyrophosphorylase From Thermocrispum agreste Provides a Highly Efficient Biocatalyst for the Production of UDP-Glucose” (Frontiers in Bioengineering and Biotechnology, 2020)

Target: UDP-glucose pyrophosphorylase from Thermocrispum agreste DSM 44070 (TaGalU) (Thermocrispum agreste DSM 44070)
Assay: SEC; Superdex 200 10/300 GL 24 mL column, non-denaturing, 50 mM Hepes pH 7.0, 1 mM MgCl2; calibrated with protein standards

**Q.** Which stoichiometry N does the source give for “UDP-glucose pyrophosphorylase from Thermocrispum agreste DSM 44070 (TaGalU) (enzyme)” here?
**A.** Its stoichiometry N is 6.
